Laboratory results published in patent publication US12180485B2, “Repressible control of gene expression” (TRUSTEES OF BOSTON UNIVERSITY, priority 2020, dated 2024).
Entries after “also recorded” stand apart in the source; their conditions may differ.

Legend:
[1] = test system: mCherry; assay: Drug inhibited knockdown system (Cas13 OFF switch, dNS3/ANR domains), mCherry expression; format: cell-based; conditions: split Cas13d linked to dNS3 and ANR domains
[2] = test system: mammalian systems; conditions: toxicity in mammalian systems at working concentration; cited from earlier work
[3] = molecular target: CID domains; conditions: cited from earlier work
[4] = test system: mCherry; assay: Split Cas13 (559/560) or WTCas13 driven by inducible promoters (NFkB, CAGA12, AP1), mCherry knockdown; format: cell-based; conditions: NFkB promoter with TGFbeta; CAGA12 promoter with TNFalpha; AP1 promoter with PMA
Text: FIG. 13A-13E is a series of schematics and graphs showing the coupling of split Cas13 (559/560) expression to inducible promoters responsive to endogenous signals. Inducible promoters responsive to endogenous signals drove split Cas13 expression for the construction of AND logic gate. FIG. 13A is a schematic showing the transfection compositions of endogenous signal-responsive promoters (e.g., “short response elements” and “miniP”) driving split Cas13d's. […] FIG. 13E is a series of bar graphs showing that orthogonality among the 3 inducible promoters tested. In FIG. 13B-13D, the left-right order of the bars for each design is the same as the top-down order of the legend for each bar graph, and “NT-gRNA” is non-target gRNA. In FIG. 13E, the left-right order of the bars is the same as the top-down order of the legend for each bar graph.

[5] = molecular target: NS3a/danoprevir complex (Hepatitis C virus genotype 1a, UniProt P27958, T1100M/T1173A); conditions: cited from earlier work
[6] = molecular target: asunaprevir-bound NS3a (Hepatitis C virus genotype 1a, UniProt P27958, T1100M/T1173A); conditions: cited from earlier work
[7] = molecular target: grazoprevir/NS3a complex (Hepatitis C virus genotype 1a, UniProt P27958, T1100M/T1173A); conditions: cited from earlier work
[8] = test system: mCherry; assay: mCherry knockdown by LwaCas13a and PspCas13b, WT and GIB CID split sites; format: cell-based
Text: Cas13b was able to facilitate over 70% mCherry knockdown. […] Two additional mCherry-targeting crRNA sequences for LwaCas13a were identified; they both offered moderate mCherry knockdown (around 50% in populations highly expressing Cas13a).
With the LwaCas13a and PspCas13b specific mCherry-targeting crRNAs, 12 split sites were screened in PspCas13b, and 11 split sites were screened in LwaCas13a sequences.
Therefore, it is contemplated herein that the knockdown efficiency of split LwaCas13a can be brought up by optimized crRNA design. Moreover, without wishing to be bound by theory, with a more efficient crRNA, GIB-induced knockdown efficiency by splits 397/398, 488/489, 605/606, 786/787, or 826/827 could also be enhanced.

[9] = test system: mCherry; assay: mCherry knockdown by inducible split RfxCas13d (ON switch) in transfected HEK 293 FT cells, flow cytometry; format: cell-based
[10] = test system: HLA-A2; assay: Endogenous gene knockdown: HLA-A2 antibody staining of HEK 293FT cells transfected with B2M targeting gRNA, flow cytometry; format: cell-based; conditions: RAP inducible split pair, compared with WT RfxCas13
[11] = test system: recombinase reporter; assay: Split recombinases (Cre, Flp, PhiC, vCre) with tandem or single CaffVHH, recombinase reporters, caffeine induction; format: cell-based; conditions: 48 hours of 100 uM caffeine

## CC(C)(C)OC(=O)N[C@H]1CCCCC/C=C\[C@@H]2C[C@@]2(C(=O)NS(=O)(=O)C2CC2)NC(=O)[C@@H]2C[C@@H](OC(=O)N3Cc4cccc(F)c4C3)CN2C1=O [Danoprevir]
[1]
  inhibition of constitutive knockdown activity of the OFF switch: able to inhibit the constitutive knockdown activity

## C=C[C@@H]1C[C@]1(NC(=O)[C@@H]1C[C@@H]2CN1C(=O)[C@H](C(C)(C)C)NC(=O)O[C@@H]1C[C@H]1CCCCCc1nc3ccc(OC)cc3nc1O2)C(=O)NS(=O)(=O)C1CC1.O [Grazoprevir, reference compound]
[1]
  inhibition of constitutive knockdown activity of the OFF switch: able to inhibit the constitutive knockdown activity
[2]
  Toxicity*: no
[3]; ligand / CID dimerization domain, read-out: Dissociation constant (Kd)
  Kd: 0.02 nM
[3]; reversibility of the ligand-induced dimerization / action
  Reversibility: yes

## TNFalpha
[4]
  mCherry knockdown by split Cas13d or WTCas13 expressed from inducible promoter: induced mCherry knockdown

B1: G3: reader domain, SEQ ID NO: 168 (protein)
chain: DIEKLCKKAEEEAKEAQEKADELRQRHPDSQAAEDAEDLANEAEAAVLAACSLAQEHPNADIAKLCIKAASEAAEAASKAAELAQRHPDSQAARDAIKLASQAARAVILAIMLAAENPNADIAKLCIKAASEAAEAASKAAELAQRHPDSQAARDAIKLASQAAEAVERAIWLAAENPNADIAKKCIKAASEAAEEASKAAEEAQRHPDSQKARDEIKEASQKAEEVKERCKS
[5]
  binding of NS3 in the presence of danoprevir: no binding
[6]
  binding of NS3 in the presence of asunaprevir: some binding
[7]
  binding of NS3 in the presence of grazoprevir: moderate binding

B2: DNCR1: danoprevir/NS3 complex reader, SEQ ID NO: 167 (protein)
chain: SSDEEEARELIERAKEAAERAQEAAERTGDPRVRELARELKRLAQEAAEEVKRDPSSSDVNEALKLIVEAIEAAVDALEAAERTGDPEVRELARELVRLAVEAAEEVQRNPSSSDVNEALLSIVIAIEAAVHALEAAERTGDPEVRELARELVRLAVEAAEEVQRNPSSREVEHALMKIVLAIYEAEESLREAEESGDPEKREKARERVREAVERAEEVQRDPSGWLNH
[5]
  binding of NS3 in the presence of danoprevir: high binding
[6]
  binding of NS3 in the presence of asunaprevir: minimal binding
[7]
  binding of NS3 in the presence of grazoprevir: minimal binding

B3: LwaCas13a: Cas13a from Leptotrichia wadei (protein, listed as Leptotrichia wadei)
chain: MKVTKVDGISHKKYIEEGKLVKSTSEENRTSERLSELLSIRLDIYIKNPDNASEEENRIRRENLKKFFSNKVLHLKDSVLYLKNRKEKNAVQDKNYSEEDISEYDLKNKNSFSVLKKILLNEDVNSEELEIFRKDVEAKLNKINSLKYSFEENKANYQKINENNVEKVGGKSKRNIIYDYYRESAKRNDYINNVQEAFDKLYKKEDIEKLFFLIENSKKHEKYKIREYYHKIIGRKNDKENFAKIIYEEIQNVNNIKELIEKIPDMSELKKSQVFYKYYLDKEELNDKNIKYAFCHFVEIEMSQLLKNYVYKRLSNISNDKIKRIFEYQNLKKLIENKLLNKLDTYVRNCGKYNYYLQVGEIATSDFIARNRQNEAFLRNIIGVSSVAYFSLRNILETENENGITGRMRGKTVKNNKGEEKYVSGEVDKIYNENKQNEVKENLKMFYSYDFNMDNKNEIEDFFANIDEAISSIRHGIVHFNLELEGKDIFAFKNIAPSEISKKMFQNEINEKKLKLKIFKQLNSANVFNYYEKDVIIKYLKNTKFNFVNKNIPFVPSFTKLYNKIEDLRNTLKFFWSVPKDKEEKDAQIYLLKNIYYGEFLNKFVKNSKVFFKITNEVIKINKQRNQKTGHYKYQKFENIEKTVPVEYLAIIQSREMINNQDKEEKNTYIDFIQQIFLKGFIDYLNKNNLKYIESNNNNDNNDIFSKIKIKKDNKEKYDKILKNYEKHNRNKEIPHEINEFVREIKLGKILKYTENLNMFYLILKLLNHKELTNLKGSLEKYQSANKEETFSDELELINLLNLDNNRVTEDFELEANEIGKFLDFNENKIKDRKELKKFDTNKIYFDGENIIKHRAFYNIKKYGMLNLLEKIADKAKYKISLKELKEYSNKKNEIEKNYTMQQNLHRKYARPKKDEKFNDEDYKEYEKAIGNIQKYTHLKNKVEFNELNLLQGLLLKILHRLVGYTSIWERDLRFRLKGEFPENHYIEEIFNFDNSKNVKYKSGQIVEKYINFYKELYKDNVEKRSIYSDKKVKKLKQEKKDLYIRNYIAHFNYIPHAEISLLEVLENLRKLLSYDRKLKNAIMKSIVDILKEYGFVATFKIGADKKIEIQTLESEKIVHLKNLKKKKLMTDRNSEELCELVKVMFEYKALE
[8]; position-matched LwaCas13a crRNA
  mCherry knockdown compared to no crRNA control group: did not achieve mCh knockdown
[8]; two additional mCherry-targeting crRNA sequences, populations highly expressing Cas13a
  mCherry knockdown: around 50%

B4: 565/566: RfxCas13d split between residues 565/566; N and C fragments plain or fused to CID domains (protein)
chain 1: IEKKKSFAKGMGVKSTLVSGSKVYMTTFAEGSDARLEKIVEGDSIRSVNEGEAFSAEMADKNAGYKIGNAKFSHPKGYAVVANNPLYTGPVQQDMLGLKETLEKRYFGESADGNDNICIQVIHNILDIEKILAEYITNAAYAVNNISGLDKDIIGFGKFSTVYTYDEFKDPEHHRAAFNNNDKLINAIKAQYDEFDNFLDNPRLGYFGQAFFSKEGRNYIINYGNECYDILALLSGLRHWVVHNNEEESRISRTWLYNLDKNLDNEYISTLNYLYDRITNELTNSFSKNSAANVNYIAETLGINPAEFAEQYFRFSIMKEQKNLGFNITKLREVMLDRKDMSEIRKNHKVFDSIRTKVYTMMDFVIYRYYIEEDAKVAAANKSLPDNEKSLSEKDIFVINLRGSFNDDQKDALYYDEANRIWRKLENIMHNIKEFRGNKTREYKKKDAPRLPRILPAGRDVSAFSKLMYALTMFLDGKEINDLLTTLINKFDNIQSFLKVMPLIGVNAKFVEEYAFFKDSAKIADELRLIKSFARMGEPIADARRAMYIDAIRILGTNLSYDELK
chain 2: ALADTFSLDENGNKLKKGKHGMRNFIINNVISNKRFHYLIRYGDPAHLHEIAKNEAVVKFVLGRIADIQKKQGQNGKNQIDRYYETCIGKDKGKSVSEKVDALTKIITGMNYDQFDKKRSVIEDTGRENAEREKFKKIISLYLTVIYHILKNIVNINARYVIGFHCVERDAQLYKEKGYDINLKKLEEKGFSSVTKLCAGIDETAPDKRKDVEKEMAERAKESIDSLESANPKLYANYIKYSDEKKAEEFTRQINREKAKTALNAYLRNTKWNVIIREDLLRIDNKTCTLFRNKAVHLEVARYVHAYINDIAEVNSYFQLYHYIMQRIIMNERYEKSSGKVSEYFDAVNDEKKYNDRLLKLLCVPFGYCIPRFKNLSIEALFDRNEAAKFDKEKKKVSGNS
[9]; GIB induced split pairs, NES on one moiety, NLS on the other
  performance after NES/NLS compartmentalization: high inducibility with minimal leakiness
[9]; GIB: N ss-GAI/GID-ss C, ABA: N ss-PYL/ABI-ss C
  performance of reversed CID orientation versus original orientation: stronger inducibility and weaker leakiness
[9]; split pairs coupled with CID domains, with inducer
  knockdown across the various CID systems: efficient knockdown; also recorded: consistently strong drug-induced knockdown
[10]
  decrease in HLA-A2 expression level: comparable decrease in HLA-A2 expression level

B5: Flp split 374/375: split Flp, aa 1-374 / 375-423 of SEQ ID NO: 60, with tandem or single CaffVHH (protein, listed as Saccharomyces cerevisiae)
chain: MSQFDILCKTPPKVLVRQFVERFERPSGEKIASCAAELTYLCWMITHNGTAIKRATFMSYNTIISNSLSFDIVNKSLQFKYKTQKATILEASLKKLIPAWEFTIIPYNGQKHQSDITDIVSSLQLQFESSEEADKGNSHSKKMLKALLSEGESIWEITEKILNSFEYTSRFTKTKTLYQFLFLATFINCGRFSDIKNVDPKSFKLVQNKYLGVIIQCLVTETKTSVSRHIYFFSARGRIDPLVYLDEFLRNSEPVLKRVNRTGNSSSNKQEYQLLKDNLVRSYNKALKKNAPYPIFAIKNGPKSHIGRHLMTSFLSMKGLTELTNVVGNWSDKRASAVARTTYTHQITAIPDHYFALVSRYYAYDPISKEMIAL
modifications: split with 375-423; CaffVHH fusions
[11]
  induced recombination, tandem CaffVHH compared to single CaffVHH: comparable induced recombination, if not better
